In test [1] the target is histone H1 coupled to the SPR sensor chip (UniProt P02253). Nature of the test: SPR.
For test [2], the target named is histone H3/H4 tetramer coupled to the SPR sensor chip (UniProt P84229). Briefly: SPR. On the technique in general: SPR reads the build-up and loss of mass on a sensor chip optically.

Sequence of UniProt P02253 (P02253 whole entry): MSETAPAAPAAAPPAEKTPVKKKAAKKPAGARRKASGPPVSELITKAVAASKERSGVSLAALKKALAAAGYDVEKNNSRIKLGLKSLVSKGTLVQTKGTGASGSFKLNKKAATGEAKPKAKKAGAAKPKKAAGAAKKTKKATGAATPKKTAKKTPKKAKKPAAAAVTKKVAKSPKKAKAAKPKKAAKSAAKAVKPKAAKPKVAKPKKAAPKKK

As usually defined, the Kd is a measure of binding affinity in units of concentration. The low end stands for a tighter complex, the high end for a looser complex. Usually koff stands for a measure of how fast the partners let go of each other. As usually defined, the kon is the second-order rate constant of association. A high value points to faster complex formation. In test [1], “recombinant human somatic NASP (nuclear autoantigenic sperm protein), NH2-terminal 6His tag (from UniProt P49321-2 1-449) (natural protein)” returned a Kd of 13.8 nM, a koff of 0.000198 s⁻¹ and a kon of 14400 M⁻¹ s⁻¹. In test [2], this substance showed a Kd of 237 nM, an off-rate (koff) of 0.000691 s⁻¹ and a kon of 2920 M⁻¹ s⁻¹.

The record behind these values is PMC2566879.
